Source: the supplement of paper PMC12764529
± gives the half width of the 95% confidence interval.

Legend:
[1] = folding stability dG unfold (combined trypsin and chymotrypsin); higher = more stable
In short: (§1)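 K50 was inferred by Bayesian fitting of sequencing counts obtained after protease digestion of designed mini-proteins. Unfolding free energy was derived by comparison with a sequence-predicted unfolded-state K50 and a shared folded-state K50, for each protease or both combined. The mini-proteins were under 80 residues, had no cysteine, were carried in a PA-tagged cDNA display construct, and were kept only if AlphaFold2 dimer inter-PAE exceeded 15.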

[2] = folding stability dG unfold from trypsin proteolysis; higher = more stable
In short: as §1

[3] = folding stability dG unfold from chymotrypsin proteolysis; higher = more stable
In short: as §1

SAGGSAGGSMWIVRIEYENPDNGKTYTIPIFVPPEDAEEIAKEIAEQLPGIKDIKVEIYPLNDSAGGSAGGS [r12_757_TrROS]
folding stability dG unfold [1]: 2.03 ± 0.16 kcal/mol
folding stability dG unfold [2]: 1.52 ± 0.064 kcal/mol
folding stability dG unfold [3]: 2.22 ± 0.079 kcal/mol

SAGGSAGGSNKKKKTIMFTIKLDVPEGTPTAEEIADELKELSPNVEIDNIMFTPNEVYIMIKVSAGGSAGGS [r12_454_TrROS]
folding stability dG unfold [1]: 1.61 ± 0.18 kcal/mol
folding stability dG unfold [2]: 1.16 ± 0.077 kcal/mol
folding stability dG unfold [3]: 1.84 ± 0.062 kcal/mol

SAGGSAGGSNKPVYFRAKIRNPDGKPIGEIEIPAKFDSLEDARSFAENLAKDLPGYKVEIELVSAGGSAGGS [r20_201_TrROS]
folding stability dG unfold [1]: 1.77 ± 0.081 kcal/mol
folding stability dG unfold [2]: 2.061 ± 0.012 kcal/mol
folding stability dG unfold [3]: 1.38 ± 0.084 kcal/mol

SAGGSAGGSNLEEFLAKLPPDVEVVVDPETGTVLVRFPKTGTVAVFRVDAAEGKVELVEVKPVSAGGSAGGS [r12_82_TrMRF]
folding stability dG unfold [1]: 3.77 ± 0.073 kcal/mol
folding stability dG unfold [2]: 3.88 ± 0.11 kcal/mol
folding stability dG unfold [3]: 3.72 ± 0.049 kcal/mol

SAGGSAGGSNTITVFMKVDDPEDALDEISEEIRDLFPPGIEVEIQPEQNEDKRGWVQVTIEFKSAGGSAGGS [r20_122_TrROS]
folding stability dG unfold [1]: 1.02 ± 0.2 kcal/mol
folding stability dG unfold [2]: 1.04 ± 0.063 kcal/mol
folding stability dG unfold [3]: 1.15 ± 0.33 kcal/mol

SAGGSAGGSPDEGDPVKITILIMIMIPNENGEPYFIFIRVEITIDPKDNKIQITKIDEIYIFPSAGGSAGGS [r12_358_TrROS]
folding stability dG unfold [1]: 4.42 ± 0.12 kcal/mol
folding stability dG unfold [2]: 3.74 ± 0.16 kcal/mol
folding stability dG unfold [3]: 4.66 ± 0.1 kcal/mol

SAGGSAGGSPDLPELNIEPVSTLPDGSKIYRADVSPEAIARLKAANPAVTVEEHPDFLLLFLRESAGGSAGG [r6_395_JUSTAS]
folding stability dG unfold [1]: 0.565 ± 0.04 kcal/mol
folding stability dG unfold [2]: 0.475 ± 0.059 kcal/mol
folding stability dG unfold [3]: 0.666 ± 0.058 kcal/mol

SAGGSAGGSPESVTFPVGDYLVTVTRNPEDGSLTVTVYDPKTGKPIVLPPEVLAENPDLAENLSAGGSAGGS [r12_817_TrMRF]
folding stability dG unfold [1]: 2.68 ± 0.056 kcal/mol
folding stability dG unfold [2]: 3.14 ± 0.11 kcal/mol
folding stability dG unfold [3]: 2.35 ± 0.058 kcal/mol

SAGGSAGGSPGKPYVEVEFTFIAFFPDGWLWVMTMKIEIPPDNNEIKPDIEMERIPLPPGQFLSAGGSAGGS [r12_811_TrROS]
folding stability dG unfold [1]: 2.7 ± 0.08 kcal/mol
folding stability dG unfold [2]: 2.43 ± 0.05 kcal/mol
folding stability dG unfold [3]: 2.73 ± 0.066 kcal/mol

SAGGSAGGSPGMKPVEIPFRNPDGKNWKITSIYVMPDGPAMITIEDPNNGKERQIPAEDIDEFSAGGSAGGS [r12_488_TrROS]
folding stability dG unfold [1]: -0.136 ± 0.21 kcal/mol
folding stability dG unfold [2]: -0.911 ± 0.58 kcal/mol
folding stability dG unfold [3]: 0.227 ± 0.32 kcal/mol

SAGGSAGGSPGPGTEVEVRYRHPATGRWYPGVAVFTPDGSIRVYFPALGTTVTVPPHTVEPVPSAGGSAGGS [r12_726_TrMRF]
folding stability dG unfold [1]: 1.93 ± 0.053 kcal/mol
folding stability dG unfold [2]: 1.98 ± 0.056 kcal/mol
folding stability dG unfold [3]: 1.93 ± 0.031 kcal/mol

SAGGSAGGSPGTLIEVRFPDRIVRIYQLPPGVYRVEVYEPPYLVATIELPNVTAEEAARLALGSAGGSAGGS [r20_8_TrMRF]
folding stability dG unfold [1]: 2.72 ± 0.054 kcal/mol
folding stability dG unfold [2]: 1.61 ± 0.034 kcal/mol
folding stability dG unfold [3]: 3.071 ± 0.021 kcal/mol

SAGGSAGGSPIKIEFPPGIKEIEPIENDPNKTIMFRFPDYLVRIRINPKNGKIDIEIVPPGDMSAGGSAGGS [r12_858_TrROS]
folding stability dG unfold [1]: 1.82 ± 0.11 kcal/mol
folding stability dG unfold [2]: 1.94 ± 0.028 kcal/mol
folding stability dG unfold [3]: 1.9 ± 0.027 kcal/mol

SAGGSAGGSPKWKTIEITVLVPGMPAEEIAKNIANNFGIEITDIDVQLFPNGWVVVSATIRVKSAGGSAGGS [r12_359_TrROS]
folding stability dG unfold [1]: 2.99 ± 0.096 kcal/mol
folding stability dG unfold [2]: 2.59 ± 0.087 kcal/mol
folding stability dG unfold [3]: 3.16 ± 0.051 kcal/mol

SAGGSAGGSPLVKTTTSVDPVGPDRTLTTSTATLPSGGTTVTTTTFLTSPDGTVPVATTTTPSASAGGSAGG [r6_471_JUSTAS]
folding stability dG unfold [1]: -0.11 ± 0.21 kcal/mol
folding stability dG unfold [2]: -0.461 ± 0.15 kcal/mol
folding stability dG unfold [3]: 0.24 ± 0.14 kcal/mol

SAGGSAGGSPMKIEAVELEDGTVAYRLEDGTVLLVTKNEDGTYTVKVFKNGKLVEEKEIKLPPSAGGSAGGS [r12_451_TrROS_Hall]
folding stability dG unfold [1]: 2.99 ± 0.071 kcal/mol
folding stability dG unfold [2]: 2.28 ± 0.069 kcal/mol
folding stability dG unfold [3]: 3.277 ± 0.03 kcal/mol

SAGGSAGGSPNPKVVPFTFPVVIPDEDGHPYLVNVTVTAIPDTDTYYARITYPDGRVEDFVLASAGGSAGGS [r12_286_TrMRF]
folding stability dG unfold [1]: 2.33 ± 0.04 kcal/mol
folding stability dG unfold [2]: 1.94 ± 0.049 kcal/mol
folding stability dG unfold [3]: 2.494 ± 0.015 kcal/mol

SAGGSAGGSPPGWTIMMFEITISITVPRVEVYDPKDGKPRAEVPYVRVSIPIPIFIIFPAGAFSAGGSAGGS [r12_600_TrROS]
folding stability dG unfold [1]: 3.77 ± 0.11 kcal/mol
folding stability dG unfold [2]: 2.93 ± 0.17 kcal/mol
folding stability dG unfold [3]: 4.24 ± 0.12 kcal/mol

SAGGSAGGSPPNWKTIPITFWVDPGDVEEFANILRDLGLEIEDVEVEPNPDGHVWVTITIVIPSAGGSAGGS [r12_905_TrROS]
folding stability dG unfold [1]: 3.33 ± 0.18 kcal/mol
folding stability dG unfold [2]: 2.57 ± 0.17 kcal/mol
folding stability dG unfold [3]: 3.54 ± 0.1 kcal/mol

SAGGSAGGSPRIVRVEVDPPPGGLGLARIEVEVVDPSTGVPRLERRTVPVPLGDWKKLLDFLGSAGGSAGGS [r12_691_TrMRF]
folding stability dG unfold [1]: 2.23 ± 0.15 kcal/mol
folding stability dG unfold [2]: 2.06 ± 0.051 kcal/mol
folding stability dG unfold [3]: 2.25 ± 0.054 kcal/mol

SAGGSAGGSPVKDPDGKEVVPIQMTFIIRDPEMGKPVLITITFYIDPAPGGKIKDISIDIFPLSAGGSAGGS [r12_0_TrROS]
folding stability dG unfold [1]: 4.04 ± 0.17 kcal/mol
folding stability dG unfold [2]: 3.51 ± 0.27 kcal/mol
folding stability dG unfold [3]: 4.29 ± 0.17 kcal/mol
